Assay: label from the status in PepcDB records

| Sequence | protein production |
| --- | --- |
| MNMQKCDSTQEQQLTFEPRGHQLTNINVWTPDSQWLAYDVRPNSSTFSGLTIERVNCITGDIEVIYRSQHGAHVGVVTVSPDMPARYVFIHGPEHPDNHWHYDFHHRRGVIVTEPDRELAVTLDAMDITPPFTPGALRGGSHVHVFSPDGSRLSFTYNDHVLHEQDPALDCRNVAVALPLHGVNPPKQHPREYDGSHFCVLVTRTTPTPLAGSDQISRAYEEGWIGSQGYLKMDGTRQRWALAFIGDTLSAQGEKIPEIFIADLPEHERDYARAGEEPLEGTQTTMPAPPAGVRQRRLTFTAERHFPGLATSPRHWLRTSPDGSAIACLMKDDEGVVQLWLVSPNGGEPRQLTFTEGGIQSAFSWHPQGHSLVFVCDNSVMQCDSTTGQLWRLTARSAIAPMADAVVFSPDGTKVAFMREIDGLAQIFTVKVD | failed |
| MNNGRRIGLIMIITGATLWGLSGPMIQWLFQHTNVSSIDFLTIRLLLAGIFILSFLLIKKQNIFQIWKHPRHSIQLIIFSILGMLGAQYAFIETVHISNAVTATLFQFLGPVFITIYVAFEQRKFPASMQLLAIITALTGTYFIITNGSIENIVLSKEAIIFGLLTAIGFAFYTLHPASLIKECGTTLVIGWGMLIGGIALLICNRSFGWHELSQTFTTKTFSMLILIIISGTLSFLLYIGSLKYLAATETSILSSIEPLVAAIVSIAWLNESFGAYQLLGGVCIVLSVIFLTMPQKENEPAFTSEQI | failed |
| MNNIKRFFRYISKNAKYIDYPLVVTYLLLCLIGLVMVYSASMVAATKGSLTGGISVPGTYFYTRQLMYVIMSLVIVFFMAFFMNVKLLETIRFQKWMMIGIIILLAATLVVGSNINGSKSWINLGFMNLQASELLKIAIILYIPYMIEKKRPKVFKQPKLMTSPIILAGLCIALVLLQRDVGQTLLIMIIFVSILFYAGIGVQKSIKYGLLIIVGVVIIGSLFLIIGLVPDYLTARFSTLTNPFSQESGTGYHISNSLIAIGNGGLLGRGLGNSIMKLGYLPEPHTDFIFSIICEELGLVGGLVVICLLFFIVYRAFELANKTNSYFYKLVCVGVASYIGSQTFVNLGGISGTIPLTGVPLPFISFGGSSMISLSIALGLLLITGKQIRIEAYRKKQANKKKTHIGMTRRY | failed |
| MNNKIYFTPGPSELYPTVRQHMITALDEKIGVISHRSKKFEEVYKTASDNLKTLLELPSNYEVLFLASATEIWERIIQNCVEKKSFHCVNGSFSKRFYEFAGELGREAYKEEAAFGKGFYPADITVPADAEIICLTHNETSSGVSMPVEDINTFRDKNKDALIFVDAVSSLPYPKFDWTKIDSVFFSVQKCFGLPAGLGVWILNDRVIEKSKALLAKRKSIGTYHTIPSMLEKARVNQTPETPNAMNIFLLGKVTGDMLQISADGIRKQTEEKAALINTYIESSKVFSFGVEDAKLRSMTTIVANTTMLPGEINKILEPFDMAVGAGYGSKKETQIRIANFPAHSLEQVHKLVQTLKEKIG | not failed |
| MNNKLKTQAVEQLFQAILSLKDLDEAYDFFEDVCTINEILSLSQRFEVAKMLREHRTYLDIAEKTGASTATISRVNRSLNYGNDGYDRVFERLGMLEKESEDNK | not failed |
| MNNKTKGIILITISALSFALMSTFVKLSGDLPSIEKSFFRNLVSCFVAFYLVKKDNALLFGHKENRLALIGRSALGTLGIWANYYAIDRLILSDATILNKLSPFFVIIFSYLFLKEKLKPIHIICLLAAFSGVLFIVRPSGNLASNFIPAIIGLCSAAFAGGAYTFVRYLGGKEKGATIVFFFSFFSIVTTFPIMLFQFETFSLEQFVFLILAGVAASCAQFALTAAYKYAPARDISIYDYTQVIFTALIGFVLFGDIPDKISLIGYVLILLASFSIFLYNKKEASK | not failed |
| MNNNLQRDAIAAAIDVLNEERVIAYPTEAVFGVGCDPDSETAVMRLLELKQRPVDKGLILIAANYEQLKPYIDDTMLTDVQRETIFSRWPGPVTFVFPAPATTPRWLTGRFDSLAVRVTDHPLVVALCQAYGKPLVSTSANLSGLPPCRTVDEVRAQFGAAFPVVPGETGGRLNPSEIRDALTGELFRQG | not failed |
| MNNPGLFQARWNLGKLVLCNLLPLALLGFWLWPTGQALCTVFDEWLFHHLNAPLASNSTWLHIWAVASLRPFDIVVGLIMLGLLIRGDWVFKAVDVRRAFFGFLSILILMVVIRALFSKLVAVMNWQHNSPSMVLEGAVHMSDYFPGWEKTWELKDRSSQSFPGDHASVLLIWGLFMGIFSRSIGQFLIVWGLTLLFMMPRLVAGAHWGQDDYIGGVLLAVLALGWGYYTPYAARMSNFLLRLTHPLFNLLSRMPVLSRMSVVRASSLLR | failed |
| MNNQSVDVDLITRFDNEAKLHALDSVYAIAEFDLAGKLIEANPLFCKMLGYKKEDIIQKSHTLFLPEAQRQKHDHFWHDVIKGNINAGEFQRKTQKGDIIWLHAAYTPIIDHSGRRIGVIKLALDITQEKRLMSEHRAQLDAIENAQGVIEFDKDGYITHVNKHYLILTGYEAKEILGLHHKSLCDPIYTEQADYQTFWETLHRGHPISGRFHRLGKGNHSFWIQATYSPVMDSDGNVRKIIKYAHNITQNVETEKKAHQQGIILDILLSVHDSFLLDHNLPSACDKVFERLLDVTNSSFGFIATLQEDEDGQSLYLPAISNLAWDEETLTWYRHQRRTHGGLRLRKLDNLFGHVVTHNTVVCTNSLLRQKAGRDLPPIHPALHSLLGIPITHNGKTVGMIALANRREGYDQTMIELLAPLVKTLGIIIHARLLEDERTQIEASLRFNAGHDFLTGLPNRSSFFEQASAFFLLRQQNQHADKSCLAIIDIDLFKNINDQFGHLAGDAVLKELAMLMRMSLRQEDLVARIGGEEFIILLKDVPYQTAVMAIERIRKAIEQHTLEYDRQNLNFTISAGIAAYRSDLASVEDWIQLADENLYAAKRQGRNCVK | failed |
| MNNRPQLIYILPNLFTAASAFLGVISIIASIHGNYYTALIYIILSLICDGLDGRVARLTNSTSKFGVEFDSLADLVAFGVAPAVLFYMAIGYDFGKLGSLITAFFVVFGAIRLARFNVTTGTYEPSVFIGLPIPTAAVVSAIWTYAFISYDFLKPYGVVFLVLQAILGLLMVSNIRYPSFKKLDFNRSSVLKVLIILIIIFSFLYLYPLESLVILASLYVLYGIIRVLYTIIVSKFKIRNQE | failed |
| MNNSETPAPGPDSLLALAFPSDPQVSPDGKQVAFVLAQISEEDPAKPDKDFARPRYRSGLWLSEGGAARPLTHAETGRGDSAPRWSPDGQNLAFVRSAGEVKAALMLLPLKGGEARRVTHFKNGVSGPQWSPDGRFIAFTTTADTEDKRDERGEARVLTRPVYRANGADWLPERPAALWLYDVEADKLREWYAPEIGIGALSWWPDSRGVLIVQSEDEWQASQWRQDVYDLPLPTADAPAAPQKLLDWNSAAHGLAPHPDGQRFALIGRPAGKGNTEHAHLYLIENGQHRRLDTGHDHPVGDAVGGDCHVGAFPEGPRWLDGDTLLFSSTVRGSVGLFTAHIGGGVKAYDHDPQGVISAFTANEHGVALIRESATRFPEVELNGQRVTDLHARFPFPVREPQRVTFETELGEGEGWVLLPEGEQKVPALLNIHGGPHTDYGHGFTHEFQLMAARGYGVCYSNPRGSVGYGQAWVDAIYGRWGTVDADDLLNFFDRCLEAVPRLDAAKTAVMGGSYGGFMTNWITGHTTRFQAAITDRCISNLISFGGTSDIGLRFWDDELGLDFSRRADALKLWDLSPLQYVENVKTPTLIVHSVLDHRCPVEQAEQWYAALHKHQVPVRFVRFPEENHELSRSGRPDRRLTRLNEYFAWLERWL | failed |
| MNNSINHKFHHISRAEYQELLAVSRGDAVADYIIDNVSILDLINGGEISGPIVIKGRYIAGVGAEYTDAPALQRIDARGATAVPGFIDAHLHIESSMMTPVTFETATLPRGLTTVICDPHEIVNVMGEAGFAWFARCAEQARQNQYLQVSSCVPALEGCDVNGASFTLEQMLAWRDHPQVTGLAEMMDYPGVISGQNALLDKLDAFRHLTLDGHCPGLGGKELNAYITAGIENCHESYQLEEGRRKLQLGMSLMIREGSAARNLNALAPLINEFNSPQCMLCTDDRNPWEIAHEGHIDALIRRLIEQHNVPLHVAYRVASWSTARHFGLNHLGLLAPGKQADIVLLSDARKVTVQQVLVKGEPIDAQTLQAEESARLAQSAPPYGNTIARQPVSASDFALQFTPGKRYRVIDVIHNELITHSHSSVYSENGFDRDDVSFIAVLERYGQRLAPACGLLGGFGLNEGALAATVSHDSHNIVVIGRSAEEMALAVNQVIQDGGGLCVVRNGQVQSHLPLPIAGLMSTDTAQSLAEQIDALKAAARECGPLPDEPFIQMAFLSLPVIPALKLTSQGLFDGEKFAFTTLEVTELEHHHHHH | not failed |
| MNNVSEERVAEMIWDAVSEGATLKDVHGIPQDMMDGLYAHAYEFYNQGRLDEAETFFRFLCIYDFYNPDYTMGLAAVCQLKKQFQKACDLYAVAFTLLKNDYRPVFFTGQCQLLMRKAAKARQCFELVNERTEDESLRAKALVYLEALKTAETEQHSEQEKELEHHHHHH | not failed |
| MNNVSTRAPVRGTKTSLTLPNILTYARIAAIPVVVGCIFAQSILGGPLALRWVALAVFIAAAITDFLDGHFARIWDQQSAFGRMLDPIADKLLVASCLLMLAADSIIHGWTLWAAIVILCREILVSGLREYLAALRVSVPVTRLAKWKTTAQLVAIGFLLAGEAGDEVLPFTTEIGVSLLWLSALLTMYTGYDYFRAGIHHLIEEDQA | failed |
| MNPADVTQLAPAVSTDVSLLSLFWHAHWVVKSIMLGLLGCSVWVWAIAIDKLLLFSRTKRAMDRFEQAFWSGESIDELYRALSAKPTHSMAACFVAAMREWKRSFESHSRSFAGLQMRIEKVMNVSIAREVERLERRLLVLATVGSAGPFVGLFGTVWGIMSSFQSIAASKNTSLAVVAPGIAEALFATAIGLIAAIPATIFYNKFTSEVNRQTQRLEGFADEFSAILSRQIDERT | failed |
| MNPALVALGLTLFAGMATGIGSAIAFFARRTNFRFLSVATGFSAGVMVYVSFVEILPKGLDSLVRSCGESWGHWLNAASFFGGMLCIGLIDAVIPAAKNPHEIHADHEIAPLHDRSAPLPDFGSLAADPRCAPTGTHDHRPPQRHLLRMGLFTALAITIHNFPEGMATFLAALESPRVGAAIAVAIALHNIPEGVSVSVPIFYATGNRRKAFALSLLSGMAEPVGAAIGYLALLLFSGGASGAIPDQVTGALFGGVAGIMVYISLDELLPASRAYGKGHDSLLGLVGGMAVMALSLLLMK | failed |
| MNPCGIQRYQTQMYTQVSYDFRLSWSSGKRSASGFEAVGGAKMAEEKLGMKTQVPASIESQKPRPKKAPEFPIVEKLNWLIHLYYIRKDYEACKAVIKEQLQETQGLCEYAIYVQALIFRLEGNIQESLELFQTCAVLSPQCADNLKQVARSLFLLGKHKAATEVYNEAAKLNQKDWEICHNLGVCYTYLKQFSKAQDQLHSALQLNKHDLTYIMLGKIHLLQGDLDKAIEIYKKAVEFSPENTELLTTLGLLYLQLGVYQKAFEHLGNALTYDPANYKAILAAGSMMQTHGDFDVALTKYRVVACAIPESPPLWNNIGMCFFGKKKYVAAISCLKRANYLAPFDWKILYNLGLVHLTMQQYASAFHFLSAAINFQPKMGELYMLLAVALTNLEDIENAKRAYVEAVRLDKCNPLVNLNYAVLLYNQGEKKGALAQYQEMEKKVHFLKDNNPLEFDSEMVEMAQKLGAALQVGEALVWTKPVKDPKSKHRTNSGSKSATLQQPLGSFQALGQAMSSAAAHRKIPSGAVGAQLTKPPSLPLEPEPEPTVEASPTEASEQNKEK | failed |
| MNPFKNFETRQVLEETCEVHGCQLWLTKVPIKGRLEELKQCPECTKAAINIFENKLNSQSKINSKLADTYAVFERDSLVSDKLRAKSLENYEIKDEIDQHAINYAKRMEQFYRQDRTGNAIITGPSGVGKSHLTYGLAKFMNEQFKAYESPKSVLFISLVSLFTKIKESFKVDNGYRQADMIELLTRVDYLFLDDLGKESRKGDSQNNEWTHQILYEILDNRSNTIINTNLSSKEIKALYADNYGNGALSSRILEGVTGNSFAYPKDMEDRRY | failed |
| MNPLHLAAAFASGCLLTLMVHFNGQLAHYGNALFSSWTAHGTGTVAALIYLAIMRPKKDAAAPAKPNAPLWAYCGGVVGAAIVILTSTAVNSPLALSGTIALGLGGQVIFSLLADLFGLFGLPKRRPDVQDMVAVCLILCGSALIILVGRAA | failed |
